In the supplement of paper PMC9112550, “Optimization of the antimicrobial peptide Bac7 by deep mutational scanning” (BMC Biology, 2022):

System: Escherichia coli TOP10
Test: shrunken log2 fold change of peptide-encoding DNA abundance (4.5 h post-induction vs induction); higher = less antimicrobial activity (less host growth inhibition)
Conditions: time post-induction: 4.5 h; library: site-saturation at positions 5, 18, 19, 20
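Note: peptides expressed intracellularly from a pBAD plasmid library in pooled LB shake-flask culture, induced with 0.3% L-arabinose, DNA abundance read by NGS, three biological replicates, DESeq2 with apeglm shrinkage.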

Sequence	shrunken log2 fold change
RRIRERPPRLPRPRPRPHGTPRP	0.0284
RRIRMRPPRLPRPRPRPEILPRP	0.121
RRIRMRPPRLPRPRPRPVWEPRP	0.4
RRIRTRPPRLPRPRPRPDWKPRP	-0.0156
RRIRPRPPRLPRPRPRPIELPRP	-0.0296
RRIRHRPPRLPRPRPRPASKPRP	-0.0351
RRIRNRPPRLPRPRPRPNIVPRP	-0.115
RRIRNRPPRLPRPRPRPLLDPRP	0.0489
RRIRERPPRLPRPRPRPGGIPRP	0.0836
RRIRMRPPRLPRPRPRPHNIPRP	-0.0272
RRIRVRPPRLPRPRPRPIEKPRP	0.0502
RRIRHRPPRLPRPRPRPTGSPRP	0.0528
RRIRRRPPRLPRPRPRPIINPRP	-0.207
RRIRMRPPRLPRPRPRPAKCPRP	0.147
RRIRRRPPRLPRPRPRPTYNPRP	-0.267
RRIRGRPPRLPRPRPRPKIPPRP	0.0163
RRIRPRPPRLPRPRPRPAYDPRP	-0.26
RRIRLRPPRLPRPRPRPRIGPRP	0.0176
RRIRSRPPRLPRPRPRPVNLPRP	-0.0294
RRIRFRPPRLPRPRPRPRSNPRP	-0.336
RRIRVRPPRLPRPRPRPEDQPRP	0.0356
RRIRMRPPRLPRPRPRPMGMPRP	-0.103
RRIRVRPPRLPRPRPRPRNAPRP	0.225
RRIRDRPPRLPRPRPRPFHWPRP	-0.0944
RRIRRRPPRLPRPRPRPCTCPRP	-0.111

Sequence	shrunken log2 fold change
RRIRCRPPRLPRPRPRPKIGPRP	0.0398
RRIRSRPPRLPRPRPRPVVEPRP	0.13
RRIRTRPPRLPRPRPRPIMDPRP	-0.233
RRIRTRPPRLPRPRPRPCAHPRP	-0.209
RRIRTRPPRLPRPRPRPQRRPRP	-0.0307
RRIRSRPPRLPRPRPRPNEAPRP	0.162
RRIRLRPPRLPRPRPRPQWHPRP	-0.193
RRIRFRPPRLPRPRPRPNGVPRP	-0.0018
RRIRKRPPRLPRPRPRPNDYPRP	-0.115
RRIRMRPPRLPRPRPRPRHAPRP	0.698
RRIRGRPPRLPRPRPRPSDHPRP	0.0544
RRIRCRPPRLPRPRPRPEKYPRP	-0.209
RRIRVRPPRLPRPRPRPTKYPRP	-0.523
RRIRERPPRLPRPRPRPDVTPRP	0.00636
RRIRWRPPRLPRPRPRPCDEPRP	-0.0781
RRIRTRPPRLPRPRPRPWDLPRP	0.12
RRIRKRPPRLPRPRPRPNKSPRP	0.0234
RRIRIRPPRLPRPRPRPILLPRP	-0.266
RRIRQRPPRLPRPRPRPHICPRP	-0.049
RRIRQRPPRLPRPRPRPTMQPRP	0.0998
RRIRVRPPRLPRPRPRPSGSPRP	-0.0176
RRIRPRPPRLPRPRPRPNIVPRP	-0.342
RRIRLRPPRLPRPRPRPHRSPRP	0.0989
RRIRQRPPRLPRPRPRPTQDPRP	0.508
RRIRMRPPRLPRPRPRPYNAPRP	-0.439

Sequence	shrunken log2 fold change
RRIRPRPPRLPRPRPRPISPPRP	-0.115
RRIRVRPPRLPRPRPRPACFPRP	0.169
RRIRYRPPRLPRPRPRPYHAPRP	-0.194
RRIRHRPPRLPRPRPRPYHAPRP	-1.21
RRIRDRPPRLPRPRPRPGIAPRP	0.37
RRIRDRPPRLPRPRPRPQHHPRP	-0.299
RRIRLRPPRLPRPRPRPTVTPRP	-0.0848
RRIRWRPPRLPRPRPRPFAQPRP	-0.0369
RRIRKRPPRLPRPRPRPWVPPRP	0.481
RRIRRRPPRLPRPRPRPDFKPRP	0.151
RRIRFRPPRLPRPRPRPPMAPRP	0.277
RRIRQRPPRLPRPRPRPNDHPRP	-0.884
RRIRRRPPRLPRPRPRPDCFPRP	0.681
RRIRCRPPRLPRPRPRPNPAPRP	0.101
RRIRRRPPRLPRPRPRPSQKPRP	-0.00949
RRIRVRPPRLPRPRPRPGMHPRP	-0.00805
RRIRNRPPRLPRPRPRPEWKPRP	0.0303
RRIRKRPPRLPRPRPRPEREPRP	0.671
RRIRNRPPRLPRPRPRPTLLPRP	-0.168
RRIRLRPPRLPRPRPRPAGKPRP	-0.132
RRIRQRPPRLPRPRPRPLERPRP	0.0228
RRIRIRPPRLPRPRPRPWPRPRP	0.277
RRIRYRPPRLPRPRPRPMMNPRP	-0.367
RRIRNRPPRLPRPRPRPAAQPRP	0.401
RRIRTRPPRLPRPRPRPFVNPRP	-0.223

Sequence	shrunken log2 fold change
RRIRERPPRLPRPRPRPICGPRP	0.0966
RRIRNRPPRLPRPRPRPLDMPRP	-0.0766
RRIRQRPPRLPRPRPRPTQMPRP	0.0693
RRIRFRPPRLPRPRPRPTREPRP	0.599
RRIRGRPPRLPRPRPRPTLHPRP	0.896
RRIRLRPPRLPRPRPRPPQYPRP	-0.0075
RRIRQRPPRLPRPRPRPTRQPRP	0.798
RRIRIRPPRLPRPRPRPDYKPRP	-0.231
RRIRARPPRLPRPRPRPCFKPRP	0.0174
RRIRPRPPRLPRPRPRPELNPRP	0.117
RRIRARPPRLPRPRPRPPRNPRP	0.965
RRIRWRPPRLPRPRPRPVHYPRP	-0.0467
RRIRWRPPRLPRPRPRPICSPRP	-0.199
RRIRGRPPRLPRPRPRPWPPPRP	0.663
RRIRLRPPRLPRPRPRPCKKPRP	-0.149
RRIRYRPPRLPRPRPRPYSLPRP	-0.335
RRIRNRPPRLPRPRPRPMSFPRP	-0.0524
RRIRTRPPRLPRPRPRPNCTPRP	-0.485
RRIRMRPPRLPRPRPRPQINPRP	-0.0723
RRIRNRPPRLPRPRPRPNSWPRP	-0.3
RRIRTRPPRLPRPRPRPGPFPRP	0.102
RRIRPRPPRLPRPRPRPQLVPRP	0.0126
RRIRQRPPRLPRPRPRPLFIPRP	-0.673
RRIRWRPPRLPRPRPRPSWWPRP	0.2
RRIRNRPPRLPRPRPRPVCIPRP	-0.215

Sequence	shrunken log2 fold change
RRIRCRPPRLPRPRPRPHWYPRP	-0.714
RRIRKRPPRLPRPRPRPRHNPRP	-0.241
RRIRVRPPRLPRPRPRPSQGPRP	-0.371
RRIRWRPPRLPRPRPRPIMFPRP	-0.189
RRIRQRPPRLPRPRPRPPAAPRP	0.778
RRIRGRPPRLPRPRPRPINSPRP	0.134
RRIRMRPPRLPRPRPRPEHPPRP	0.75
RRIRTRPPRLPRPRPRPMSIPRP	-0.143
RRIRPRPPRLPRPRPRPIAEPRP	-0.0633
RRIRSRPPRLPRPRPRPLCLPRP	0.259
RRIRVRPPRLPRPRPRPLWVPRP	-0.147
RRIRSRPPRLPRPRPRPQLTPRP	-0.136
RRIRRRPPRLPRPRPRPPEMPRP	0.66
RRIRMRPPRLPRPRPRPQFFPRP	-0.207
RRIRVRPPRLPRPRPRPEYRPRP	-0.115
RRIRPRPPRLPRPRPRPPCFPRP	0.307
RRIRYRPPRLPRPRPRPQVQPRP	-0.0106
RRIRWRPPRLPRPRPRPENRPRP	-0.0139
RRIRIRPPRLPRPRPRPGGDPRP	0.0406
RRIRVRPPRLPRPRPRPHSSPRP	-0.531
RRIRKRPPRLPRPRPRPPFGPRP	0.715
RRIRYRPPRLPRPRPRPPIGPRP	-0.0423
RRIRFRPPRLPRPRPRPIVRPRP	-0.0797
RRIRYRPPRLPRPRPRPAIKPRP	-0.411
RRIRERPPRLPRPRPRPADGPRP	-0.0752
